Substitutions are numbered along the chain they refer to.

A word on the EC50: it is the concentration giving half of the maximal effect. A high value points to a less potent agent.

In experiment [1] the target is T1, CAR-FITC (CD8 hinge), anti-FITC (FITC-E2 scFv) chimeric antigen receptor on T cells.
T1 construct: FITC-E2 scFv, CD8 hinge and transmembrane region, 41BB and CD3 zeta; also called Anti FITC CAR-EC with CD8 hinge; anti-FITC CAR
Put plainly: flow cytometry on anti-FITC CAR T cells, Alexa Fluor 647 anti-human IgG or anti-human kappa secondary antibody, MFI against concentration. On the procedure:
(§1) Cells were incubated with indicated switch antibodies at 4° C. for 30-60 min and washed twice with staining buffer (1% BSA in PBS). […] After several washes, samples were acquired on a BD LSR II or BD Accuri C6 and analyzed using FlowJo 7.6.2 software.
(§2) Briefly, cells were incubated with indicated switch antibodies at 4° C. for 30-60 min and washed twice with staining buffer (1% BSA in PBS). […] After several washes, samples were acquired on a BD LSR II or BD Accuri C6 and analyzed using FlowJo 7.6.2 software.
On the technique in general: Flow cytometry measures light scatter and fluorescence of single cells or particles in a stream.

Experiment [2] concerns the target T1, CAR-FITC (CD8 hinge), anti-FITC …. Description: flow cytometry on anti-FITC CAR-T cells. On the procedure: as §1, §2
The target of experiment [3] is T2, CD33 on MOLM14 cells (human, UniProt P20138 18-364).
T2 construct: whole, on cells; also called MOLM-14 cells (CD33+)
T2 sequence (P20138 18-364): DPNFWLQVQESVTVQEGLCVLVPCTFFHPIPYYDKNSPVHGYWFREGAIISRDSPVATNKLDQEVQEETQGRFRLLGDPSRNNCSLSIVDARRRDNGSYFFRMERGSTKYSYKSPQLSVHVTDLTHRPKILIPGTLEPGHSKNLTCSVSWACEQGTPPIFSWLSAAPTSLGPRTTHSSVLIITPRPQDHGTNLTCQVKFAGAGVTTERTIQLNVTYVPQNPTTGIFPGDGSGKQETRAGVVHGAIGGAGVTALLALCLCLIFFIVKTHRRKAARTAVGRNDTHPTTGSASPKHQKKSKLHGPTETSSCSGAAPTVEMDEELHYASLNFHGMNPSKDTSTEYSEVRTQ
Description: flow cytometry on MOLM-14 (CD33+) cells, MFI against Fab concentration, secondary antibody alone subtracted. On the procedure:
Binding capacity is measured through MFI. MFI of secondary antibody alone was subtracted to account for background and non-specific staining.

Experiment [4] deals with T2, CD33 on MOLM14 cells. Description: cell-based or functional assay.

T1 sequence (chain, as listed by the source mutant limits assumed): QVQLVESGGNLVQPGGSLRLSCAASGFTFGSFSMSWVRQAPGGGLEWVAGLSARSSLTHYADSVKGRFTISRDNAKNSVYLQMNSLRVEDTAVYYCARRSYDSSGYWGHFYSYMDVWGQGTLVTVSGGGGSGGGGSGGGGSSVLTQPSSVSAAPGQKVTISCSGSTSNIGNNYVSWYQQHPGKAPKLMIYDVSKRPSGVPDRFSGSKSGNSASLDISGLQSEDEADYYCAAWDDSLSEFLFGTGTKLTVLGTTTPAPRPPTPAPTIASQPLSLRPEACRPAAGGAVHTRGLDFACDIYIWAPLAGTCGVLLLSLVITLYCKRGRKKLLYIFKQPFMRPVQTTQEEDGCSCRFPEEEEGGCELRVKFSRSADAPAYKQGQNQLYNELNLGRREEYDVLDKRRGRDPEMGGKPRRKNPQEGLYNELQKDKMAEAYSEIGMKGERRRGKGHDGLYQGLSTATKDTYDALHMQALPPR

B1: random anti-CD19 (FMC63) Fab FITC conjugate (Fab, V domains shown)
VH: EVKLQESGPGLVAPSQSLSVTCTVSGVSLPDYGVSWIRQPPRKGLEWLGVIWGSETTYYNSALKSRLTIIKDNSKSQVFLKMNSLQTDDTAIYYCAKHYYYGGSYAMDYWGQGTSVTVSS
VL: DIQMTQTTSSLSASLGDRVTISCRASQDISKYLNWYQQKPDGTVKLLIYHTSRLHSGVPSRFSGSGSGTDYSLTISNLEQEDIATYFCQQGNTLPYTFGGGTKLEIKR
modifications: FITC-PEG4 by NHS chemistry at the N-terminal amino group (~58% of the conjugates); FITC-PEG4 by NHS chemistry at lysines, largely K31 (~20%) and K141 (~68.4%); paragraph 560 prints positions 31 and 145
notes: Heterogeneous mixture, average FITC to antibody ratio of 2; also called random conjugate; Random (DAR 2)
For the molecule B1, the EC50 in experiment [1] worked out at 0.0029 nM.

B2: anti-CD19 (FMC63) Fab C-FITC (light chain T109) (Fab, V domains shown)
VH: B1 VH
VL: B1 VL
modifications: position 109 of the whole light chain = pAzF conjugated with BCN-PEG4-FITC
notes: Monovalent, medial site; also called LT109
With B2, the EC50 in experiment [1] was found to be 0.0064 nM.

B3: anti-CD19 (FMC63) Fab E-FITC (light chain S202) (Fab, V domains shown)
VH: B1 VH
VL: B1 VL
modifications: position 202 of the whole light chain = pAzF conjugated with BCN-PEG4-FITC
notes: Monovalent, distal site; also called LS202
In the case of B3, the midpoint of the response in experiment [1], the EC50, lay at 0.007 nM.

B4: anti-CD19 (FMC63) Fab EF-FITC (light chain S202 and heavy chain K136) (Fab, V domains shown)
VH: B1 VH
VL: B1 VL
modifications: position 136 of the whole heavy chain = pAzF conjugated with BCN-PEG4-FITC; position 202 of the whole light chain = pAzF conjugated with BCN-PEG4-FITC
notes: Bivalent, distal sites; also called LS202/HK136
With B4, the EC50 in experiment [2] is around 3 nM; in experiment [1], 0.0029 nM.

B5: anti-CD19 (FMC63) Fab F-FITC (heavy chain K136) (Fab, V domains shown)
VH: B1 VH
VL: B1 VL
modifications: position 136 of the whole heavy chain = pAzF conjugated with BCN-PEG4-FITC
notes: Monovalent, distal site; also called HK136
Turning to B5, a half-maximal effect in experiment [1] (EC50) was put at 0.0092 nM. In other words, the picomolar range.

B6: anti-CD19 (FMC63) Fab D-FITC (heavy chain A121) (Fab, V domains shown)
VH: B1 VH
VL: B1 VL
modifications: position 121 of the whole heavy chain = pAzF conjugated with BCN-PEG4-FITC
notes: Monovalent, medial site; also called HA121
As to B6, the EC50 in experiment [1] was found to be 0.0095 nM.

B7: anti-CD19 (FMC63) Fab AB-FITC (light chain G68 and heavy chain S74) (Fab, V domains shown)
VH: B1 VH
VL: B1 VL
modifications: position 74 = pAzF conjugated with BCN-PEG4-FITC; position 68 = pAzF conjugated with BCN-PEG4-FITC
notes: Bivalent, proximal sites; also called anti-CD19 AB-FITC; LG68/HS74
In experiment [1], B7 came in with an EC50 of 0.0034 nM. Compared with the last molecule, the EC50 is about 2.8-fold lower.

B8: anti-CD19 (FMC63) Fab B-FITC (heavy chain S74) (Fab, V domains shown)
VH: B1 VH
VL: B1 VL
modifications: position 74 = pAzF conjugated with BCN-PEG4-FITC
notes: Monovalent, proximal site; also called HS74
In experiment [1], B8 displayed an EC50 of 0.0091 nM.

B9: anti-CD19 (FMC63) Fab A-FITC (light chain G68) (Fab, V domains shown)
VH: B1 VH
VL: B1 VL
modifications: position 68 = pAzF conjugated with BCN-PEG4-FITC
notes: Monovalent, proximal site; also called LG68
Regarding B9, the EC50 in experiment [1] was 0.0094 nM.

B10: anti-CD33 Fab (clone hM195) (Fab, V domains shown)
VH: QVQLVQSGAEVKKPGSSVKVSCKASGYTFTDYNMHWVRQAPGQGLEWIGYIYPYNGGTGYNQKFKSKATITADESTNTAYMELSSLRSEDTAVYYCARGRPAMDYWGQGTLVTVSS
VL: DIQMTQSPSSLSASVGDRVTITCRASESVDNYGISFMNWFQQKPGKAPKLLIYAASNQGSGVPSRFSGSGSGTDFTLNISSLQPDDFATYYCQQSKEVPWTFGQGTKVEIKR
Take B10: the EC50 in the experiment with CD33 on MOLM14 cells [3] amounted to 1800 nM.

B11: anti-CD33 hP67.6 AB-FITC switch (light chain G72 and heavy chain P75) (Fab, V domains shown)
VH: EVQLVQSGAEVKKPGSSVKVSCKASGYTITDSNIHWVRQAPGQSLEWIGYIYPYNGGTDYNQKFKNRATLTVDNXTNTAYMELSSLRSEDTAFYYCVNGNPWLAYWGQGTLVTVSS
VL: DIQLTQSPSTLSASVGDRVTITCRASESLDNYGIRFLTWFQQKPGKAPKLLMYAASNQGSGVPSRFSGSGSXTEFTLTISSLQPDDFATYYCQQTKEVPWSFGQGTKVEVKR
modifications: position 75 = pAzF conjugated with a cyclooctyne-PEG-FITC linker; position 72 = pAzF conjugated with a cyclooctyne-PEG-FITC linker
Regarding B11, in the experiment with CD33 on MOLM14 cells [4], the “EC50 of cytotoxicity of anti-FITC CAR-T cells against MOLM14 cells” value turned out to be 0.0065 nM and the “efficacy in MOLM14 against the optimized anti-CD33 hM195 CD-FITC switch” value is around 3 fold.

B12: anti-CD33 Fab (clone hP67.6) (Fab, V domains shown)
VH: B11 VH with X75P
VL: B11 VL with X72G
Regarding B12, the midpoint of the response in the experiment with CD33 on MOLM14 cells [3], the EC50, lay at 3.96 nM.

These data come from patent US20180100026A1 (CALIFORNIA INSTITUTE FOR BIOMEDICAL RESEARCH, published 2018).
